The source of these data is PMC3048872, “The Regulatory Subunit of PKA-I Remains Partially Structured and Undergoes β-Aggregation upon Thermal Denaturation” (PLoS ONE, 2011).

This data set concerns the molecule itself. Kind of data set: dynamic light scattering; thermally denatured RIα(92–381), soluble aggregates; 10 mM K-phosphate buffer, 50 mM KCl, pH 7.5; measured at 22 and 60°C.

B1: human RIα(92–381), regulatory subunit RIα of cAMP-dependent protein kinase (PKA), truncated form with the tandem CNB domains A and B (domain or fragment, UniProt P10644 92-381, looked up)
chain: KGRRRRGAISAEVYTEEDAASYVRKVIPKDYKTMAALAKAIEKNVLFSHLDDNERSDIFDAMFSVSFIAGETVIQQGDEGDNFYVIDQGETDVYVNNEWATSVGEGGSFGELALIYGTPRAATVKAKTNVKLWGIDRDSYRRILMGSTLRKRKMYEEFLSKVSILESLDKWERLTVADALEPVQFEDGQKIVVQGEPGDEFFIILEGSAAVLQRRSENEEFVEVGRLGPSDYFGEIALLMNRPRAATVVARGPLKCVKLDRPRFERVLGPCSDILKRNIQQYNSFVSLSV
notes: cAMP-dependent protein kinase type I-alpha regulatory subunit (RIα), human, residues 92-381, numbering according to Swiss-Prot P10644; lacks the N-terminal docking/dimerization domain; In the aggregation experiments the protein was thermally denatured; the self-association is that of the partly unfolded, non-native state; also called apo-RIα(92–381); wt RIα(92–381); source: E. coli BL21 (DE3) …
Take B1: the binding result is given as “binds”.
